For the data set the following is noted: Bacillus amyloliquefaciens, Thermal, DSC, reversible: yes (~80%), whole UniProt chain shown.

One may read the Tm as the temperature at the midpoint of the melting transition.

B1: Ribonuclease wild type, P00648 (protein)
chain: MMKMEGIALKKRLSWISVCLLVLVSAAGMLFSTAAKTETSSHKAHTEAQVINTFDGVADYLQTYHKLPDNYITKSEAQALGWVASKGNLADVAPGKSIGGDIFSNREGKLPGKSGRTWREADINYTSGFRNSDRILYSSDWLIYKTTDHYQTFTKIR
With B1, the Tm reads like this: (pH 7, PIPES 50 mM) 54 °C; (pH 10, CAPS 50 mM) 48.6 °C; (pH 10.3, CAPS 50 mM) 48.4 °C; (pH 10.5, CAPS 50 mM) 47.4 °C. Further, the “unfolding enthalpy (calorimetric)” value by setting is: (pH 7, PIPES 50 mM) 132 kcal/mol; (pH 10, CAPS 50 mM) 122 kcal/mol; (pH 10.3, CAPS 50 mM) 121 kcal/mol; (pH 10.5, CAPS 50 mM) 120 kcal/mol.

The values above are taken from FireProtDB (doi:10.1021/bi00015a036).
